Experimental data taken from patent US20260226194A1 (GlaxoSmithKline, published 2026).
Changes are numbered by the printed parent chain. Numbers in names are those of the source.

What was measured:
[1] = target: T1, recombinant human PAPPA (pregnancy associated plasma protein-A) (human, UniProt Q13219 82-1627); test: cell-based or functional assay
[2] = target: T2, endogenous human PAPPA natively secreted by human cells (A549; 9-7) (human, UniProt Q13219 82-1627); test: cell-based or functional assay
[3] = target: T3, recombinant cynomolgus monkey PAPPA (cynomolgus monkey, UniProt A0A2K5WE98 87-1619); test: cell-based or functional assay
[4] = target: T4, recombinant mouse PAPPA (mouse, UniProt Q8R4K8 82-1624, limits assumed); test: cell-based or functional assay
[5] = target: T1, recombinant human PAPPA (pregnancy …); test: cell-based or functional assay; remark: listed apart in the source
[6] = target: T2, endogenous human PAPPA natively …; test: cell-based or functional assay; remark: listed apart in the source
[7] = target: T1, recombinant human PAPPA (pregnancy …); test: cell-based or functional assay; remark: listed apart in the source
[8] = target: T1, recombinant human PAPPA (pregnancy …); test: cell-based or functional assay; remark: listed apart in the source
[9] = target: T2, endogenous human PAPPA natively …; test: cell-based or functional assay; remark: listed apart in the source
[10] = target: T1, recombinant human PAPPA (pregnancy …); test: SPR, Biacore 8K+, mAb captured on PrismA chip, PAPPA as analyte, 37 C, mean of n=3
Method: (§1) Binding of TPP12744 to recombinant human, cynomolgus monkey and rabbit PAPPA was assessed using capture kinetics method on BIACORE 8K+ (Cytiva) SPR instrument. The antibodies, including controls, were captured on PrismA biosensor surface (Cytiva) at injection rate of 10 μl/min. Analytes were injected at injection rate of 30 μl/min over the captured antibodies as a concentration series including eight 2× serial dilutions with the highest concentration of 32 nM. Association phase was 160 seconds, followed by a dissociation phase of 600 seconds. Buffer only (OnM analyte) injection was used to double reference the binding curves. Regeneration of the chip surface between cycles was carried out using 10 mM Glycine pH 1.5. The assay was run at 37° C. in HBS-EP+ buffer with 0.1% BSA to minimize the nonspecific binding of the analytes to the chip surface. TPP12744 was analyzed as three independently prepared replicates.
(§2) The final screening process was conducted using the following criteria. Firstly, antibodies were checked for affinity to human PAPPA (method #4). Only antibodies with low nanomolar affinity for human PAPPA were retained. For one antibody (TPP12744) binding to PAPPA was assessed at 37° C. using the methodology described in Example 1, method #6.

[11] = target: human PAPPA (Common variant) (human); test: as above
Method: as §1, §2

[12] = target: T3, recombinant cynomolgus monkey PAPPA; test: as above
Method: as §1, §2

[13] = target: rat PAPPA (rat, UniProt A0ABK0LMY4 80-1624); test: SPR (Biacore 8K+, captured mAb, 37 C); data not shown
[14] = target: T4, recombinant mouse PAPPA; test: as above

T3 sequence (A0A2K5WE98 entry or part of it): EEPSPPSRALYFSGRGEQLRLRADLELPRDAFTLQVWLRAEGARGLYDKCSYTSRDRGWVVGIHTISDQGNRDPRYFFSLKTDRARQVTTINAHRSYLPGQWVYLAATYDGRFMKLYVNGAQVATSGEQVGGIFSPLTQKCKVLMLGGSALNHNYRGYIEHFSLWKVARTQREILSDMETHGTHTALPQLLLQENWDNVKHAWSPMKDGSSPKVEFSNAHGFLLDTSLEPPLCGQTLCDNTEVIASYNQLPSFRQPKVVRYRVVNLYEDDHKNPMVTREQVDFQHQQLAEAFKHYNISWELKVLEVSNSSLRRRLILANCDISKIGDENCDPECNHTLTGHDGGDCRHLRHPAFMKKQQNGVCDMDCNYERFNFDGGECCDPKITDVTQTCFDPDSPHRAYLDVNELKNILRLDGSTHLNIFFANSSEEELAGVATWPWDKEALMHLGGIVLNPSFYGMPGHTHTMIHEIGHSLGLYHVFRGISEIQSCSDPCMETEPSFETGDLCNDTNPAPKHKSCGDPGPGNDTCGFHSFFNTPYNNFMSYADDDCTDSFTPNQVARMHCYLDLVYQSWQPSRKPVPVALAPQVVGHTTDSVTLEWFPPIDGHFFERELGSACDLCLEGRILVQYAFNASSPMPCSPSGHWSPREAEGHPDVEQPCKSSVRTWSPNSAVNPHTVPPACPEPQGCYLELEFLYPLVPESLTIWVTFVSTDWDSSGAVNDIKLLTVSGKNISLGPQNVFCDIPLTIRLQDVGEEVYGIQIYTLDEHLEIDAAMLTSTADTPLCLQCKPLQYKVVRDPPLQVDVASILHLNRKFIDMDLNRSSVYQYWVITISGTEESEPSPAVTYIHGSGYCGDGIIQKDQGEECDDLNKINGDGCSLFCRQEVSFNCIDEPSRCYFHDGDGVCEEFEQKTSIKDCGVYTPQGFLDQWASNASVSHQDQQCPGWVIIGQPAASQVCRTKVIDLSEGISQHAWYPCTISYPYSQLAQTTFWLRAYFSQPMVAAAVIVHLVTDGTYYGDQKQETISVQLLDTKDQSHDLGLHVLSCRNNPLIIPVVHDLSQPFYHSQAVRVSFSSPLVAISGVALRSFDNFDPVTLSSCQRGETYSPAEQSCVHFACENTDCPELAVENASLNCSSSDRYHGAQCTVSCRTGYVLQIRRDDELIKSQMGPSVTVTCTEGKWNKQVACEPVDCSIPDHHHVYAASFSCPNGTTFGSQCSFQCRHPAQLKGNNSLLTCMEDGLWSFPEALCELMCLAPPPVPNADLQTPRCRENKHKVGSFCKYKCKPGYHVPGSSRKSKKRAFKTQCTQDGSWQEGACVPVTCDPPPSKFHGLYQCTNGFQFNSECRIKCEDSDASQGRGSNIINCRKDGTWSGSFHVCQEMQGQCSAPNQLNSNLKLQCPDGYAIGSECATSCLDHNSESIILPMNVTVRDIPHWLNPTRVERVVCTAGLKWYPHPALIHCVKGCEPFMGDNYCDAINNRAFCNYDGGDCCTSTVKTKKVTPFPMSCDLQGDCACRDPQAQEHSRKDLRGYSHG
T1 sequence (Q13219 82-1627 limits assumed): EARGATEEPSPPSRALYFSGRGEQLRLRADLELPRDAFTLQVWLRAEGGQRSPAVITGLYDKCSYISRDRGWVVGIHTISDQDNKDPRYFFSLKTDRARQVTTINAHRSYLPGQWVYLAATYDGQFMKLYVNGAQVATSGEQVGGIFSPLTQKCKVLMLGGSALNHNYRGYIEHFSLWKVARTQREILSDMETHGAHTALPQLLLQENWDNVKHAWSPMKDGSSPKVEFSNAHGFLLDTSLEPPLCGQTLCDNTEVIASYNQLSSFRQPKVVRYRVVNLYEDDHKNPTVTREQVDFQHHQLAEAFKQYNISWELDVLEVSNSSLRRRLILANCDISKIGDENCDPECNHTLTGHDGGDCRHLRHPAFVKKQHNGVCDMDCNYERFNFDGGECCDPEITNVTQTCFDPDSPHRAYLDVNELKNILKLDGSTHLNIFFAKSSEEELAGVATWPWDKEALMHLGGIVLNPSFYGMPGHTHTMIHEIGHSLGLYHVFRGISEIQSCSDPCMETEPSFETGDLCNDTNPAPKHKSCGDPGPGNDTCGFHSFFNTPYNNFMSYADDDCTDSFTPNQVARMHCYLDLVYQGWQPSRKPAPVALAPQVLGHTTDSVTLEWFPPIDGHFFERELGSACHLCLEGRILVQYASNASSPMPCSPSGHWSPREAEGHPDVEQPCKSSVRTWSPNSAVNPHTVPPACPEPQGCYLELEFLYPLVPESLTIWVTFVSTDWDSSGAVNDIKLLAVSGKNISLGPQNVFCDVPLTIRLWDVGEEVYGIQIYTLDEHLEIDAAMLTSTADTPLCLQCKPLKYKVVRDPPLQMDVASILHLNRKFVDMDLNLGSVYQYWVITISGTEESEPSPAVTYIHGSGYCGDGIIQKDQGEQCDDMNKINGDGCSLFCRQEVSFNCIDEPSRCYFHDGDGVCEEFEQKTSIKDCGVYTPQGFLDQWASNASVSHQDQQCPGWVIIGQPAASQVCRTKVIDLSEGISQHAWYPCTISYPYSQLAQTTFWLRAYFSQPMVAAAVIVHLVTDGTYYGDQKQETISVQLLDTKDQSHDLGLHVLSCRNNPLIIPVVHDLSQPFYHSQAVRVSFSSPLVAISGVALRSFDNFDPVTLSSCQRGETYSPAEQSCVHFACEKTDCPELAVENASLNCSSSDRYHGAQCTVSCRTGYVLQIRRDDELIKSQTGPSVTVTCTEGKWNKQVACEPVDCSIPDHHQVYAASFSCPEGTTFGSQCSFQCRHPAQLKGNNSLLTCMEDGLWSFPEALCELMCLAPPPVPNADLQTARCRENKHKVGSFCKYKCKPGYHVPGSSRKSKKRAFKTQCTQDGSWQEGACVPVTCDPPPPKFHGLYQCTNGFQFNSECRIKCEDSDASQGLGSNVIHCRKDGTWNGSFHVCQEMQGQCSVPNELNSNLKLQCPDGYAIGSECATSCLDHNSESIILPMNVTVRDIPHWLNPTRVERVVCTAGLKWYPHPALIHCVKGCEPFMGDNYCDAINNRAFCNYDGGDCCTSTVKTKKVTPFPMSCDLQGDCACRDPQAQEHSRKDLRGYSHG
T2 sequence (Q13219 82-1627 limits assumed): as above
T4 sequence (Q8R4K8 82-1624 limits assumed): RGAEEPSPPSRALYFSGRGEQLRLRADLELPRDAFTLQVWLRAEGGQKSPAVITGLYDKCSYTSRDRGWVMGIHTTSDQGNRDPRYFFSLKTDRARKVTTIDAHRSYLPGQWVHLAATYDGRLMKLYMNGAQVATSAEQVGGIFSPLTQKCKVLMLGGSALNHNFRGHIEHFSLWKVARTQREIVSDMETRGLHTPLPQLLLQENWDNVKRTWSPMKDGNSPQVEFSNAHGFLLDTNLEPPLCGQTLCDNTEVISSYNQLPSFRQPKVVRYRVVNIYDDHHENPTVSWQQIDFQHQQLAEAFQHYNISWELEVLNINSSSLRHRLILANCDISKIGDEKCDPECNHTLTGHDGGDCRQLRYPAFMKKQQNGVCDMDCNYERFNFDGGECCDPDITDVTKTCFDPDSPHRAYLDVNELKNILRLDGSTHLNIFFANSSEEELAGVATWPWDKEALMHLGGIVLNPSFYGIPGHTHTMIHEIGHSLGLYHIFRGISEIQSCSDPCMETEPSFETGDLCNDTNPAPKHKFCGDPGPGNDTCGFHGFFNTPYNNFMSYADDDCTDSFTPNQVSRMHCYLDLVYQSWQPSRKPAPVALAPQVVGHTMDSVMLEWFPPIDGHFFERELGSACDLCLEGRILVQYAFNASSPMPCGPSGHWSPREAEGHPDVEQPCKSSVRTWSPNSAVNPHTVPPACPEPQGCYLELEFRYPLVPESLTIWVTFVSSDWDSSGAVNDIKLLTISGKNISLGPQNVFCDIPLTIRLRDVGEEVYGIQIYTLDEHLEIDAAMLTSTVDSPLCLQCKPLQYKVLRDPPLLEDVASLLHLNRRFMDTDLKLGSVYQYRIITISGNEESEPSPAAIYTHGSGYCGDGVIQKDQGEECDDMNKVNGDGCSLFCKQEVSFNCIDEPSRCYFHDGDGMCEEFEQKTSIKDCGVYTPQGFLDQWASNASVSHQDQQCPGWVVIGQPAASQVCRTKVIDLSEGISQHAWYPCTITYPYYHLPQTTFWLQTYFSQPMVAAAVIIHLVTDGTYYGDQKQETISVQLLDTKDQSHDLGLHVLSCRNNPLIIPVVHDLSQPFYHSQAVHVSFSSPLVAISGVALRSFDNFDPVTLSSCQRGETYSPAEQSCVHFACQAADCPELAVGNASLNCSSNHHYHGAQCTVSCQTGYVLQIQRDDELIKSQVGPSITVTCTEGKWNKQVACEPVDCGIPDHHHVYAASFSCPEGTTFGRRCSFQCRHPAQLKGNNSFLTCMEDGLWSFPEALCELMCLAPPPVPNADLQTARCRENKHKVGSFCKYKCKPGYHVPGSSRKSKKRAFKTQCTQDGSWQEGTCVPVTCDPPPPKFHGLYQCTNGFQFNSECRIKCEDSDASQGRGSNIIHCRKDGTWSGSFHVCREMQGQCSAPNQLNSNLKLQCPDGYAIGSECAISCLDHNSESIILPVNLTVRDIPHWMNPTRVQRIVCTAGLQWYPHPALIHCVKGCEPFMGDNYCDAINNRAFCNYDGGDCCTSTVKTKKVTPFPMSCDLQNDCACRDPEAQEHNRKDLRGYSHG

B1: TPP-12681 (antibody, human IgG1, kappa, V domains shown)
VH: EVQLVQSGAEVKKPGESLKISCKGSGYSFTSYWTGWVRQAPGKGLEWMGIIYPGGSVARYSPSFQGQVTISADKSISTAYLQWSSLKASDTAVYYCARGPLRSDYPDVWGQGTMVTVSS
VL: EIVMTQSPATLSVSPGERATLSCRASQSVGSYLAWYQQKPGQAPRLLIYRGSTRATGIPARFSGSGSGTEFTLTISSLQSEDFAVYYCQQPYVWPITFGGGTKVEIKR
rec. Human PAPP-A IGFBP4 pIC50 (G-401 pAKT assay) [1]: 9.57 pIC50 | rec. Human PAPP-A IGFBP5 pIC50 (G-401 pAKT assay) [1]: 9.68 pIC50 | A549 cells endogenous human PAPP-A pIC50 (A549 pAKT assay) [2]: 9.7 pIC50 | rec. Cyno PAPP-A IGFBP4 pIC50 (G-401 pAKT assay) [3]: 9.46 pIC50 | rec. Mouse PAPP-A IGFBP4 pIC50 (G-401 pAKT assay) [4]: 9.51 pIC50 | PAPP-A cleavage of IGFBP-4 Mean pIC50 [5]: 10.1 pIC50 | EC50 (read off the curve) [6]: ~0.1 nM

B2: TPP-12821 (antibody, human IgG1, kappa, V domains shown)
VH: B1 VH with Y32D, T34I, V57D, A58T, Q65R, P106V
VL: B1 VL with Y32N, G51A
PAPP-A cleavage of IGFBP-5 Mean pIC50 [7]: 9.1 pIC50 | rec. Human PAPP-A IGFBP4 pIC50 (G-401 pAKT assay) [1]: 9.45 pIC50 | rec. Human PAPP-A IGFBP5 pIC50 (G-401 pAKT assay) [1]: 9.04 pIC50 | A549 cells endogenous human PAPP-A pIC50 (A549 pAKT assay) [2]: 9.5 pIC50 | rec. Cyno PAPP-A IGFBP4 pIC50 (G-401 pAKT assay) [3]: 9.85 pIC50 | rec. Mouse PAPP-A IGFBP4 pIC50 (G-401 pAKT assay) [4]: 9.28 pIC50 | PAPP-A cleavage of IGFBP-4 Mean pIC50 [5]: 10.5 pIC50

B3: TPP-12743 (antibody, human IgG1, kappa, V domains shown)
VH: QVQLVQSGAEVKKPGASVKVSCKASGYTFTSYAMHWVRQAPGQRLEWMGWMNAGTGATKSSQKFQGRVTITRDTSASTAYMELSSLRSEDTAVYYCARGPSLETPTTFGMDVWGQGTTVTVSS
VL: DIQMTQSPSSVSASVGDRVTITCRASQGISRWLAWYQQKPGKAPKLLIYAASSLQSGVPSRFSGSGSGTDFTLTISSLQPEDFATYYCQQENAYPFTFGGGTKVEIKR
PAPP-A cleavage of IGFBP-5 Mean pIC50 [7]: 10.4 pIC50 | rec. Human PAPP-A IGFBP4 pIC50 (G-401 pAKT assay) [1]: 9.36 pIC50 | rec. Human PAPP-A IGFBP5 pIC50 (G-401 pAKT assay) [1]: 9.66 pIC50 | A549 cells endogenous human PAPP-A pIC50 (A549 pAKT assay) [2]: 9.76 pIC50 | rec. Cyno PAPP-A IGFBP4 pIC50 (G-401 pAKT assay) [3]: 10 pIC50 | PAPP-A cleavage of IGFBP-4 Mean pIC50 [5]: 10 pIC50

B4: TPP-12801 (antibody, human IgG1, kappa, V domains shown)
VH: QLQLQESGPGLVKPSETLSLTCTVSGGSISSSDYYWGWIRQPPGKGLEWIGSIFYSGSTYYNPSLKSRVTISVDTSKNQFSLKLSSVTAADTAVYYCARATTSSSADYWGQGTLVTVSS
VL: B3 VL with I29V, E91G, A93V, Y94P, F96L
PAPP-A cleavage of IGFBP-5 Mean pIC50 [7]: 9.1 pIC50 | rec. Human PAPP-A IGFBP4 pIC50 (G-401 pAKT assay) [1]: 9.22 pIC50 | rec. Human PAPP-A IGFBP5 pIC50 (G-401 pAKT assay) [1]: 9.05 pIC50 | A549 cells endogenous human PAPP-A pIC50 (A549 pAKT assay) [2]: 9.33 pIC50 | rec. Cyno PAPP-A IGFBP4 pIC50 (G-401 pAKT assay) [3]: 9.76 pIC50 | PAPP-A cleavage of IGFBP-4 Mean pIC50 [5]: 8.96 pIC50

B5: TPP-12744 (antibody, human IgG1, kappa, V domains shown)
VH: B3 VH with L102M
VL: B3 VL
notes: human IgG1/kappa, Fc-disabled (L235A, G237A)
PAPP-A cleavage of IGFBP-5 Mean pIC50 [7]: 10.7 pIC50 | IC50, PAPPA-mediated cleavage of human IGFBP2, cell-free, Western blot [8]: 1.39 nM | EC50, increase of intact IGFBP4 in A549 cell supernatant (ELISA) [9]: 0.8 nM | EC50, increase of intact IGFBP4 in ADPKD patient derived cystic 9-7 cells (ELISA) [9]: 0.4 nM | IC50, decrease of IGFBP4-Ct fragments in 9-7 cells (ELISA) [9]: 0.02 nM | IC50, decrease of IGFBP4-Ct fragments in A549 cell supernatant (ELISA) [9]: 0.8 nM | IC50, decrease of free-IGF-1 in A549 cell supernatant (ELISA) [9]: 0.03 nM | pEC50, increase of intact IGFBP4 in 9-7 cells (ELISA) [9]: 9.41 pEC50 | pEC50, increase of intact IGFBP4 in A549 cell supernatant (ELISA) [9]: 9.09 pEC50 | pIC50, decrease of IGFBP4-Ct fragments in 9-7 cells (ELISA) [9]: 10.6 pIC50 | pIC50, decrease of IGFBP4-Ct fragments in A549 cell supernatant (ELISA) [9]: 9.07 pIC50 | pIC50, decrease of free-IGF-1 in A549 cell supernatant (ELISA) [9]: 10.5 pIC50 | Kd [10]: 0.127 nM | koff [10]: 0.000319 s⁻¹ | kon [10]: 2.51e+06 M⁻¹ s⁻¹ | Kd [11]: 0.21 nM | koff [11]: 0.000393 s⁻¹ | kon [11]: 1.87e+06 M⁻¹ s⁻¹ | Kd [12]: 0.161 nM | koff [12]: 0.000433 s⁻¹ | kon [12]: 2.68e+06 M⁻¹ s⁻¹ | binding result [13]: no binding | binding result [14]: no binding | rec. Human PAPP-A IGFBP4 pIC50 (G-401 pAKT assay) [1]: 9.46 pIC50 | rec. Human PAPP-A IGFBP5 pIC50 (G-401 pAKT assay) [1]: 9.81 pIC50 | A549 cells endogenous human PAPP-A pIC50 (A549 pAKT assay) [2]: 9.49 pIC50 | rec. Cyno PAPP-A IGFBP4 pIC50 (G-401 pAKT assay) [3]: 9.56 pIC50 | PAPP-A cleavage of IGFBP-4 Mean pIC50 [5]: 10 pIC50 | EC50 (read off the curve) [6]: ~1 nM

B6: TPP-12792 (antibody, human IgG1, kappa, V domains shown)
VH: B4 VH
VL: B3 VL with L54V, E91G, A93V, Y94P, F96L
PAPP-A cleavage of IGFBP-5 Mean pIC50 [7]: 9.78 pIC50 | rec. Human PAPP-A IGFBP4 pIC50 (G-401 pAKT assay) [1]: 9.18 pIC50 | rec. Human PAPP-A IGFBP5 pIC50 (G-401 pAKT assay) [1]: 9.35 pIC50 | A549 cells endogenous human PAPP-A pIC50 (A549 pAKT assay) [2]: 8.92 pIC50 | rec. Cyno PAPP-A IGFBP4 pIC50 (G-401 pAKT assay) [3]: 9.23 pIC50 | PAPP-A cleavage of IGFBP-4 Mean pIC50 [5]: 9.53 pIC50

B7: TPP-12708 (antibody, human IgG1, kappa, V domains shown)
VH: B3 VH with M51I, S60Y, S61A, Q62R, L102M, F108Y, D111E
VL: B3 VL with A50S, A51T, S56L, A93D
PAPP-A cleavage of IGFBP-5 Mean pIC50 [7]: 11.1 pIC50 | rec. Human PAPP-A IGFBP4 pIC50 (G-401 pAKT assay) [1]: 9.59 pIC50 | rec. Human PAPP-A IGFBP5 pIC50 (G-401 pAKT assay) [1]: 9.92 pIC50 | A549 cells endogenous human PAPP-A pIC50 (A549 pAKT assay) [2]: 9.86 pIC50 | rec. Cyno PAPP-A IGFBP4 pIC50 (G-401 pAKT assay) [3]: 9.7 pIC50 | PAPP-A cleavage of IGFBP-4 Mean pIC50 [5]: 10.2 pIC50

B8: TPP-12683 (antibody, human IgG1, kappa, V domains shown)
VH: QLQLQESGPGLVKPSETLSLTCTVSGGSISSSSYNWGWIRQPPGKGLEWIGSISSSGSTYFNPSLKSRVTISVDTSKNQFSLKLSSVTAADTAVYYCARSGYRPSFYAMDAWGQGTTVTVSS
VL: DIQLTQSPSSVSASVGDRVTITCRASQDISYWLAWYQQKPGKAPKLLIYAASSLQSGVPSRFSGSGSGTDFTLTISSLQPEDFATYYCQQAYLLHTFGGGTKVEIKR
PAPP-A cleavage of IGFBP-5 Mean pIC50 [7]: 8.69 pIC50 | rec. Human PAPP-A IGFBP4 pIC50 (G-401 pAKT assay) [1]: 8.84 pIC50 | rec. Human PAPP-A IGFBP5 pIC50 (G-401 pAKT assay) [1]: 8.81 pIC50 | A549 cells endogenous human PAPP-A pIC50 (A549 pAKT assay) [2]: 8.44 pIC50 | rec. Cyno PAPP-A IGFBP4 pIC50 (G-401 pAKT assay) [3]: 8.48 pIC50 | rec. Mouse PAPP-A IGFBP4 pIC50 (G-401 pAKT assay) [4]: 8.88 pIC50 | PAPP-A cleavage of IGFBP-4 Mean pIC50 [5]: 8.8 pIC50
